Laboratory results reported in patent EP4792891A2 (LTZ Therapeutics Inc., dated 2026).

Key:
EGFR on DLD-1 cells = EGFR on DLD-1 cells (UniProt P00533); test: cell-based or functional assay
[1] = biological target: T1, CD79b on cells (Ramos cells, endogenous B cells) (human, UniProt P40259 29-229); test: cell-based or functional assay
T1 sequence (looked up): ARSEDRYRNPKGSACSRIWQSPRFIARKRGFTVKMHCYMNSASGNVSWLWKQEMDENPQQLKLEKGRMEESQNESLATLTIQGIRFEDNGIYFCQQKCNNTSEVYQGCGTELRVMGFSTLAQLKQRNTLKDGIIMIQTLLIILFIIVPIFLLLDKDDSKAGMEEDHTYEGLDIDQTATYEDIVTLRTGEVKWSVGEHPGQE

Necitumumab (antibody)
IC50 (nM), DLD-1 cell killing by M0 macrophages (EGFR on DLD-1 cells): 0.0574 nM

B1: CD79b/5C7 (1+1 B) Fc-optimized (bispecific antibody, human IgG1, kappa)
heavy 1: EQQLVETGGGLIQPGGSLRLSCAASGFTINIDYWISWVRQAPGKGLEWIGIIDPGDGTTYFAIWVSGRFTISFDNSKNTVYLQMNSLRAEDTAVYFCVREFSASAYQYDLWGPGTLVTVSSASTKGPSVFPLAPSSKSTSGGTAALGCLVKDYFPEPVTVSWNSGALTSGVHTFPAVLQSSGLYSLSSVVTVPSSSLGTQTYICNVNHKPSNTKVDKKVEPKSCDKTHTCPPCPAPELLAGPSVFLFPPKPKDTLMISRTPEVTCVVVDVSHEDPEVKFNWYVDGVEVHNAKTKPREEQYNSTYRVVSVLTVLHQDWLNGKEYKCKVSNKALPLPEEKTISKAKGQPREPQVYTLPPSRDELTKNQVSLSCAVKGFYPSDIAVEWESNGQPENNYKTTPPVLDSDGSFFLVSKLTVDKSRWQQGNVFSCSVMHEALHNHYTQKSLSLSPGK
heavy 2: DIQMTQSPSSLSASVGDRVTITCQASESVDRNNRLAWFQQKPGKPPKLLIYTTSTLASGVPSRFSGSGSGTDFTLTISSLQPEDVATYYCAGYRGAHTDGDAFGGGTKVEIKGGGGSGGGGSGGGGSGGGGSEQQLVESGGGLVKPGGSLRLSCAASGFSFSRSSYMCWVRQAPGKGLEWIGCLSVGDGHTYYASWAKGRFTISKDSAKNSVYLQMNSLRAEDTAVYFCARAPSYSGDGGHGYDLWGPGTLVTVSSDKTHTCPPCPAPELLAGPSVFLFPPKPKDTLMISRTPEVTCVVVDVSHEDPEVKFNWYVDGVEVHNAKTKPREEQYNSTYRVVSVLTVLHQDWLNGKEYKCKVSNKALPLPEEKTISKAKGQPREPQVYTLPPSRDELTKNQVSLWCLVKGFYPSDIAVEWESNGQPENNYKTTPPVLDSDGSFFLYSKLTVDKSRWQQGNVFSCSVMHEALHNHYTQKSLSLSPGK
light: ELVMTQSPATLSVSPGERATLSCRASEDIENYLAWYQQKPGQPPRLLIYRASTLSSGVPARFSGSGSGTEFTLTISSLQSEDFAVYYCQQGYRNSNVDNPFGGGTKVEIKRTVAAPSVFIFPPSDEQLKSGTASVVCLLNNFYPREAKVQWKVDNALQSGNSQESVTEQDSKDSTYSLSSTLTLSKADYEKHKVYACEVTHQGLSSPVTKSFNRGEC
IC50 (nM), killing of endogenous B cells by PBMCs, Donor 234 [1]: 0.0453 nM

B2: CD79b/5C7 (2+2 B) Fc-optimized (bispecific antibody, human IgG1, kappa)
heavy: EQQLVETGGGLIQPGGSLRLSCAASGFTINIDYWISWVRQAPGKGLEWIGIIDPGDGTTYFAIWVSGRFTISFDNSKNTVYLQMNSLRAEDTAVYFCVREFSASAYQYDLWGPGTLVTVSSASTKGPSVFPLAPSSKSTSGGTAALGCLVKDYFPEPVTVSWNSGALTSGVHTFPAVLQSSGLYSLSSVVTVPSSSLGTQTYICNVNHKPSNTKVDKKVEPKSCDKTHTCPPCPAPELLAGPSVFLFPPKPKDTLMISRTPEVTCVVVDVSHEDPEVKFNWYVDGVEVHNAKTKPREEQYNSTYRVVSVLTVLHQDWLNGKEYKCKVSNKALPLPEEKTISKAKGQPREPQVYTLPPSRDELTKNQVSLTCLVKGFYPSDIAVEWESNGQPENNYKTTPPVLDSDGSFFLYSKLTVDKSRWQQGNVFSCSVMHEALHNHYTQKSLSLSPGGGGGSGGGGSGGGGSDIQMTQSPSSLSASVGDRVTITCQASESVDRNNRLAWFQQKPGKPPKLLIYTTSTLASGVPSRFSGSGSGTDFTLTISSLQPEDVATYYCAGYRGAHTDGDAFGCGTKVEIKGGGGSGGGGSGGGGSGGGGSEQQLVESGGGLVKPGGSLRLSCAASGFSFSRSSYMCWVRQAPGKCLEWIGCLSVGDGHTYYASWAKGRFTISKDSAKNSVYLQMNSLRAEDTAVYFCARAPSYSGDGGHGYDLWGPGTLVTVSS
light: ELVMTQSPATLSVSPGERATLSCRASEDIENYLAWYQQKPGQPPRLLIYRASTLSSGVPARFSGSGSGTEFTLTISSLQSEDFAVYYCQQGYRNSNVDNPFGGGTKVEIKRTVAAPSVFIFPPSDEQLKSGTASVVCLLNNFYPREAKVQWKVDNALQSGNSQESVTEQDSKDSTYSLSSTLTLSKADYEKHKVYACEVTHQGLSSPVTKSFNRGEC
IC50 (nM), killing of endogenous B cells by PBMCs, Donor 367 [1]: 0.0168 nM | IC50 (nM), killing of endogenous B cells by PBMCs, Donor 431 [1]: 0.0168 nM
